These results are taken from patent publication US11674959B2, “Methods for identifying and preparing pharmaceutical agents for activating Tie1 and/or Tie2 receptors” (The Johns Hopkins University, priority 2017, dated 2023).

In one assay the test system is MEC monolayers. Nature of the assay: FITC Transwell permeability assay. Type of assay: cell-based, human. Conditions: single agent alone; FITC-Dextran 40 kDa, three hours. How it is done:
The integrity of these junctions is also important for the regulation of monolayer permeability by controlling the size of intercellular openings. The effect of the AXT107 on EC permeability was further investigated by the transendothelial diffusion of FITC-labeled dextran across MEC monolayers seeded onto permeable Transwell® substrates.
(§1) Human dermal microvascular endothelial cells (Lonza) were maintained at 37° C. and 5% CO2 in EBM-2MV medium (Lonza) and used between passages two through seven. Where applicable, cells were serum starved in EBM-2 medium (Lonza) with no supplements. For FITC-Dextran permeability assays phenol red-free media were used to avoid auto-fluorescence. AXT107 were manufactured at New England Peptide by […], lyophilized, and dissolved in 100% DMSO.
Transwell, twenty-four-well inserts (Corning) were coated with 7.5 μg/cm^2 FN1 for two hours at 37° C., aspirated, and then dried for thirty minutes at room temperature. Wells were then seeded with 7.5×10^4 MECs in 100 μl of EBM-2 media (without phenol red) and allowed to settle for thirty minutes at room temperature. 1 ml of EGM-2 media was then added to the bottom chamber and an additional 200 μl to the top chamber. The plate was incubated for twenty-four hours at 37° C. after which the media was aspirated and an additional 7.5×10^4 MECs were plated in each well as described above. After forty-eight hours at 37° C., the media was aspirated from both chambers and the cells were washed twice in dPBS containing Ca^2+ and Mg^2+, once with EBM-2 media (without phenol red) and serum starved in EBM-2 media applied to both chambers for two hours at 37° C. After this incubation, 100 μM AXT107 or an equivalent amount of DMSO vehicle was added and incubated for an additional ninety minutes. In the top chamber, the cells were then treated with 200 ng/ml Ang2, 100 ng/ml VEGFA, both, or PBS control and in the bottom chamber, the cells were then treated with 25 μg/ml FITC-Dextran (40 kDa MW). AXT107 was also added in both chambers to maintain a concentration of 100 μM. After three hours, 10 μl was removed from the top chamber of each well and mixed with 90 μl of water in a clear bottom, 96-well plate. Fluorescence values for each sample were calculated using a Perkin Elmer plate reader.

A further assay has as its system Tie2. Nature of the assay: Western blot of MEC lysates, Ang1/2 signaling: Tie2 phosphorylation. It counts as cell-based, human. To be noted: ligand alone, no AXT107. How it is done:
To investigate the effects of the integrin inhibitor AXT107 on Tie2 signaling, confluent monolayers of microvascular endothelial cells (MECs) on fibronectin-coated dishes were treated with various concentrations of AXT107 followed by exposure to the Tie2 ligands Ang1 or Ang2.
as §1
For Ang1/2 signaling investigations, cell culture dishes (10 cm diameter) were coated with 5 μg/ml fibronectin (FN1; Sigma-Aldrich, St. Louis, Mo.) for two hours at 37° C. The FN1 solution was then removed by aspiration and 5×10^6 microvascular endothelial cells (MECs; Lonza, Walkersville, Md.) were plated in EGM-2MV media (Lonza) and cultured for forty-eight hours at 37° C. The cells were then serum starved for sixteen hours in serum-free EGM-2 base media (Lonza). AXT107 (0-100 μM, as indicated) was subsequently added to each culture and incubated for seventy-five minutes at 37° C. The cultures were then treated with 1 mM sodium vanadate (New England Biolabs, Ipswich, Mass.) for fifteen minutes to enhance the phospho-Tie2 signal followed by stimulation with 200 ng/ml angiopoietin (R&D Systems, Minneapolis, Minn.) for an additional fifteen minutes. The cells were then transferred to ice, washed twice with ice cold Dulbecco's phosphate-buffered saline (dPBS) containing Ca^2+ and Mg^2+, and collected by scraping in 500 μl of 1× Blue Loading Buffer (Cell Signaling, Danvers, Mass.). Lysate samples were then sonicated, boiled, and resolved by SDS-PAGE. Specific proteins were identified by Western blot, using the following primary antibodies: Cell Signaling—phospho-Tie2 (Y992) (Cat #: 4221), Tie2 (Cat #: 7403), phospho-Stat3 (Y705) (Cat #: 4113), Stat3 (Cat #: 4904), phospho-Akt (S473) (Cat #: 4058), Akt (Cat #: 9272), phospho-p44/42 MAPK (T202/Y204) (Cat #: 4370), p44/42 MAPK (Cat #: 4695); BD Transduction Laboratories—β1 integrin (Cat #: 610467); Millipore—α5 integrin (Cat #: AB1928) and detected with HRP-conjugated goat anti-rabbit and sheep anti-mouse secondary antibodies (GE healthcare).
A general note: Immunoblotting shows a protein as a band on a membrane.

In the case of VEGF [reference compound], the “FITC-dextran diffusion across the monolayer, agent alone” value in the assay with MEC monolayers was “appeared to increase permeability (although non-significantly)”.

B1: Ang2: angiopoietin 2, Tie2 ligand (protein)
chain: YNNFRKSMDSIGKKQYQVQHGSCSYTFLLPEMDNCRSSSSPYVSNAVQRDAPLEYDDSVQRLQVLENIMENNTQWLMKLENYIQDNMKKEMVEIQQNAVQNQTAVMIEIGTNLLNQTAEQTRKLTDVEAQVLNQTTRLELQLLEHSLSTNKLEKQILDQTSEINKLQDKNSFLEKKVLAMEDKHIIQLQSIKEEKDQLQVLVSKQNSIIEELEKKIVTATVNNSVLQKQQHDLMETVNNLLTMMSTSNSAKDPTVAKEEQISFRDCAEVFKSGHTTNGIYTLTFPNSTEEIKAYCDMEAGGGGWTIIQRREDGSVDFQRTWKEYKVGFGNPSGEYWLGNEFVSQLTNQQRYVLKIHLKDWEGNEAYSLYEHFYLSSEELNYRIHLKGLTGTAGKISSISQPGNDFSTKDGDNDKCICKCSQMLTGGWWFDACGPSNLNGMYYPQRQNTNKFNGIKWYYWKGSGYSLKATTMMIRPADF
B1: in the assay on Tie2, the “Tie2 phosphorylation by ligand alone” value is “insignificant effects by itself”. Besides, the “FITC-dextran diffusion across the monolayer, agent alone” value in the assay on MEC monolayers is recorded as “influenced FITC-dextran diffusion across the monolayer”.

B2: Ang1: angiopoietin 1, Tie2 ligand (protein)
chain: SNQRRSPENSGRRYNRIQHGQCAYTFILPEHDGNCRESTTDQYNTNALQRDAPHVEPDFSSQKLQHLEHVMENYTQWLQKLENYIVENMKSEMAQIQQNAVQNHTATMLEIGTSLLSQTAEQTRKLTDVETQVLNQTSRLEIQLLENSLSTYKLEKQLLQQTNEILKIHEKNSLLEHKILEMEGKHKEELDTLKEEKENLQGLVTRQTYIIQELEKQLNRATTNNSVLQKQQLELMDTVHNLVNLCTKEGVLLKGGKREEEKPFRDCADVYQAGFNKSGIYTIYINNMPEPKKVFCNMDVNGGGWTVIQHREDGSLDFQRGWKEYKMGFGNPSGEYWLGNEFIFAITSQRQYMLRIELMDWEGNRAYSQYDRFHIGNEKQNYRLYLKGHTGTAGKQSSLILHGADFSTKDADNDNCMCKCALMLTGGWWFDACGPSNLNGMFYTAGQNHGKLNGIKWHYFKGPSYSLRSTTMMIRPLDF
In the case of B2, in the assay with Tie2, the “Tie2 phosphorylation by ligand alone” value is on record as “induced phosphorylation of Tie2”.
